Results taken from the supplement of paper PMC12042874.
± gives the uncertainty stated by the source.

test: amyloid nucleation score (Sup35N fusion, yeast selection) (log enrichment); library NNK3; higher = more nucleation; inactive = no reads after selection
Outline: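 Sup35N fusions to peptides of 20 random codons were expressed in psi-negative yeast, induced 24 hours with 100 μM copper sulfate, and grown 7 days at 30°C on medium lacking adenine and uracil. Input and output plasmid inserts were sequenced by Illumina. The nucleation score is the DiMSum log enrichment of output over input reads, centred on the mode score of non-aggregating sequences. Sequences with under 100 input reads were excluded.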

Substance	amyloid nucleation score
FFADGARVYFANHVSKAFWF	1.96 ± 0.083
FFARMTALPLLQILYGSLRA	inactive
FFCRKAHLMVVFFSSMRMTG	inactive
FFFKSLEVSVTQR	inactive
FFGKAT	inactive
FFISVLFWNPGISFRITIAA	inactive
FFLGVSDSMKFLYLMPTEFD	inactive
FFLMKDSLLSSVERSIGVIG	inactive
FFLSFRYLKKFSRIGLW	inactive
FFLTYTIECVGLNHMILSIM	inactive
FFLWVYLLKSFSS	inactive
FFNIMCYRHWLKVKLYYIVK	1.9 ± 0.06
FFPMLIARMDALPRPVNLGY	inactive
FFVKEFLVLDICGMTLPFDI	inactive
FFWKILALPSE	inactive
FFYEPGVPRFYFQLFLLLSF	inactive
FFYYMYMFDVITILRVIMGC	inactive
FGAMGGCGNRWKFYQRFTDP	inactive
FGAVVDYNFSN	-0.695 ± 0.96
FGDAYM	inactive
FGFIILDLTR	inactive
FGIEQTWSNECSVKTVEMRC	inactive
FGKGRHWISAPSRWVRGDFG	inactive

Substance	amyloid nucleation score
FGLGQIRFSHIICLNLILSL	2.29 ± 0.056
FGMLFIWRK	inactive
FGNGSMNRDRSSM	inactive
FGPAMCYSLIVQLTSVYRGG	1.99 ± 0.087
FGQGGALFLWKCMTYFILLG	inactive
FGRVNCSSNYRNKMISSTRW	inactive
FGSPWPRLQMTQLLIVAMTL	inactive
FGVTVSYKWWRWSPLSYCAM	inactive
FHGKNVF	inactive
FHILIFVKTP	inactive
FHLLPKMCLLLSTLIRSGIT	inactive
FHVVFCDID	inactive
FHVYCVWVRTLSCWRENNVK	1.5 ± 0.14
FHYLMMTFIV	inactive
FICHYEHKKVRHRVYAKAYI	inactive
FIDFGIWC	inactive
FIDMLSYIAYIVLFFGASFV	inactive
FIERLARNQFLNAYSMLDCE	inactive
FIFYFCAVLNHYVCVWVRYL	inactive
FIGSGSHEIGGHINGKALSS	0.644 ± 0.19
FIIHHGVYYHAMFMDMLLLM	inactive
FILMLVTKLRAHLRGEIRGE	inactive
FILSVSYIRVCGARC	0.097 ± 0.48

Substance	amyloid nucleation score
FINFELLRSSSNNV	inactive
FINRVSPYMRSNRSLVGVSS	inactive
FISSSCSFVRCILLVNYKIR	-0.66 ± 1.9
FISWMLAR	0.9 ± 0.12
FITFLLVVFSKKCVNAK	inactive
FIVVPVGVKHDVS	inactive
FIYASCDNHKIDKRYVYLLM	inactive
FKEWVFCMYECE	inactive
FKFKERDHEWYVWFKLKHKS	inactive
FKIKKVN	inactive
FKNLGNTFGLTKRVCV	inactive
FKRHMTINLQRGITLIGIDM	1.93 ± 0.062
FKSASGRL	inactive
FKSYTWMKNLTVGFRIDPSE	inactive
FLAIGLFSSNT	1.73 ± 0.061
FLDQLSVHMQCISLEFNFGV	2.42 ± 0.068
FLEKGLFSLDISFARDLAEA	inactive
FLETVSFPMKVWSL	inactive
FLGLLLIYQPNSIE	inactive
FLHVRLRHSWVV	inactive
FLKLSLDIMFPYQIVYMPTT	inactive
FLLMCLMRCTRMETRCISAC	inactive
FLLVR	inactive

Substance	amyloid nucleation score
FLMAINFKVQSVPQNHR	0.211 ± 0.48
FLMSHVII	inactive
FLNKITNVSIYLIGTRETDV	2.81 ± 0.064
FLNLNNMGLSYMAVSLVEG	inactive
FLQNFWA	inactive
FLQSGN	inactive
FLRPV	inactive
FLSDSLNARS	inactive
FLSIRFV	inactive
FLSKTLYIVVSHGVGTSGTG	inactive
FLVDVYSCVCSILLWV	inactive
FLVFGYASVGAIETWDKTAE	inactive
FLYFTHARFHR	1.79 ± 0.094
FMAQPSLIGLFRSQS	inactive
FMDYTARVVHLTAQRFMGLW	0.189 ± 0.43
FMFNRGAAFNHFTGHTCITY	inactive
FMIAQGYHMLYLKHLCTSRN	inactive
FMMEACSSDKGEQSMGSWIE	-0.32 ± 0.78
FMSFSRGCTWSLGWA	inactive
FMSFYVLLSSTMVTQFAMGP	inactive
FMSTDTLRKCLSACMFGPIP	0.021 ± 0.31
FMSYCMYSLEGNSWHCGP	3.03 ± 0.061
FMVCCICGKYGMMVSC	inactive

Substance	amyloid nucleation score
FMYLT	inactive
FMYNLVVSGSVHSKVDRYSC	0.629 ± 0.16
FNAPVNVLFR	-0.176 ± 0.6
FNDKSMFDASKAMPFSLIAG	inactive
FNFCCLSKQGAFFMGTYCCP	0.341 ± 0.6
FNIEASYAPVRCCCKPLLAR	inactive
FNKDINRPYKCKAH	inactive
FNMWIWS	inactive
FNPERPKAVDFPILNR	inactive
FNVKVVSKSMFYFCSYMPIV	inactive
FNVLNVNS	inactive
FNVYFGAIVFKEDLPCSYSA	1.23 ± 0.12
FNYKARYSNPVRDAIYWLQI	inactive
FPFSYVYSR	inactive
FPGRQIYYILVLAQAFASGF	inactive
FQAYDSWNNWSSGFILKYSI	inactive
FQLSPTDRVYRDRSAYDVEG	inactive
FQMKCNFWKI	1.24 ± 0.077
FQNLAYMITAAPASGKKTSR	inactive
FQNPFTPFGLVVRYVPWLCW	inactive
FQRVGRFPSYSTCAGRVATG	inactive
FQTGPRYAWGLQTGLNKQVC	inactive
FRAWYDTAMSQSLFLCRKGA	inactive

Substance	amyloid nucleation score
FRCSG	inactive
FRDIRFAQSMMLSRKIIALL	inactive
FRFGSVELLEAGTIQ	0.043 ± 0.63
FRGKISKEPNCVVYFQQGRP	inactive
FRNSLQ	-0.725 ± 1.1
FRSAYDYNFC	inactive
FRSRRARGKNGIEMRILRHQ	-0.109 ± 0.69
FRSVTTVVNVEKVRVY	inactive
FRVHLFFGKWRVVVCTR	inactive
FRVTMMSACRLDSIGLDCSC	1.25 ± 0.086
FSAIWMSRQSYLRINGSPAF	0.088 ± 0.29
FSAKDFSNVYRSPSMF	inactive
FSCSDLWGRSTLDKGYSFFR	inactive
FSCVGGGSSNIWREVTDTCS	inactive
FSFFRGTRLGKSARIAERFE	inactive
FSGVLLNVYYGIHYTISIYR	inactive
FSITSADGCCSHLLRMYTNG	inactive
FSIVELTLSRLK	inactive
FSLGVWSNPDWVRCSHWFIF	1.28 ± 0.14
FSLSPIFWYAG	inactive
FSMLWILSDYLSYSCNLVFY	inactive
FSREYP	inactive
FSRKDTYFLMGIFKLNLRYL	inactive

Substance	amyloid nucleation score
FSRMPSIKCMNCMCKLFSRK	1.06 ± 0.11
FSRYDRDLKGSLSGRSYFSA	inactive
FSSFLISYRYLIVFRQMVSI	inactive
FSSMANNIL	inactive
FSSVGRDDYCNGLM	inactive
FSTMKLISMHCRVS	inactive
FTDLTVNPNYNFYMCSLNRL	2.72 ± 0.054
FTLLIYCYYLYYRCFCYVVR	inactive
FTLLVMS	inactive
FTLNVIF	1.9 ± 0.069
FTLWYVFRCVRCNKVCSGTG	0.087 ± 0.26
FTNLMLTTMCSLTLLTRGFP	inactive
FTVSFRYSLCCRDGDGESEC	1.97 ± 0.087
FTYAC	inactive
FTYCRASRSITMQYVCVICT	inactive
FTYTEMRLGIKFSTWRQ	1.03 ± 0.14
FVCRNLTFPMGHQSIMSMWD	-0.117 ± 0.75
FVDLHCSYRCIYGCCHFRIR	inactive
FVESIAVLKLFNTVKWITFF	inactive
FVEVRVD	inactive
FVFIFWTLFGRSRVDVASNM	inactive
FVGSLLGKSKFLGLHCCKEV	-0.08 ± 0.66
FVHDFTFEGKSMVVRLNCSA	inactive
